Measurements reported in patent publication US7867500B2, “Cofactor that modulates steroid receptor activities” (The United States of America as represented by the …, priority 2004, dated 2011).
One block for each molecule: values may come before it.

Experiments:
TIF2.4 [1] = molecular target: T1, TIF2.4 (Homo sapiens, UniProt Q15596); experiment: Cell-free pulldown of [35S]-labeled STAMP constructs by GST/TIF2.4; assay type: binding; conditions: compared with GST itself
T1 sequence (Q15596 624-1010 limits assumed): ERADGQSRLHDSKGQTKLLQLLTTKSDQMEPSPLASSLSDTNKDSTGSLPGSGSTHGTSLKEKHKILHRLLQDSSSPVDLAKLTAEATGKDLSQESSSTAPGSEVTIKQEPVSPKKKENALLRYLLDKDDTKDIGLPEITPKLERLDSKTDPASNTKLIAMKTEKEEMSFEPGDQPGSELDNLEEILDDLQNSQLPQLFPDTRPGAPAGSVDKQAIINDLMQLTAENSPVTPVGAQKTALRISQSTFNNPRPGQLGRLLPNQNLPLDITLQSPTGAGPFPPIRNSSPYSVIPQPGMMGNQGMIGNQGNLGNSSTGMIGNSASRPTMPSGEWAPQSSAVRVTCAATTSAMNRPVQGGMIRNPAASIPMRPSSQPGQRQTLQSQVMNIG
Description: FIGS. 7A and 7B illustrate the domains of STAMP that bind to TIF2.4 (FIG. 7A) and GR (FIG. 7B) in cell-free pulldown assays. Bacterially expressed GST-chimeras (GST/TIF2.4 in FIG. 7A and GST/STAMP segments in FIG. 7B) were immobilized on glutathione-Sepharose beads. The [^35S]methionine labeled STAMP fragments (FIG. 7A) or wild type GR (FIG. 7B) that were retained on the matrix by binding to the GST chimeras were separated on SDS PAGE gels and visualized by autoradiography. Specific binding was seen as when the GST/TIF2.4 or GST/STAMP bands were darker than the GST control bands. […] Similar results were obtained in a second experiment.
Template DNA plasmids (1 μg), 40 μl of Promega TNT (SP6) quick coupled transcription/translation system master mixture, and 2 μl of [^35S]methionine (Amersham Biosciences) were brought up to a total volume of 50 μl with H2O and incubated at 30° C. for 90 min according to the manufacturer's (Promega) recommendations. If hormone stimulation is needed, hormones (Dex, etc) were added into the transcription-translation reaction during the 30° C. incubation to both increase the stability of the synthesized GR and to cause activation of the GR-steroid complexes.
These assays were conducted generally as described (He et al., 2002). Sonicated bacterial lysates (1 ml) containing overexpressed GST, GST/TIF2.4, or GST/STAMP-956C were incubated with 160 μl of glutathione-Sepharose 4B beads for 1 hr at 0° C. The mixture was centrifuged (12,000×g), the supernatant was discarded, and the pellet was washed with phosphate-buffered saline (3×1 ml). Each 20-μl sample of immobilized GST or GST-chimera was then incubated overnight with 10 μl of ^35S-labeled in vitro translation product. The matrix was washed with phosphate-buffered saline (4×1 ml). The immobilized proteins were removed from the beads by heating at 90° C. for 5 min in 20 μl of 2×SDS loading buffer. The proteins were separated on 8-10% SDS-PAGE gels and detected by radio-autoradiography.

TIF2.4 [2] = molecular target: T1, TIF2.4; experiment: Mammalian two-hybrid assay in CV-1 cells (pFRLuc reporter) with TIF2.4; assay type: cell-based; design: expressed in transfected cells; host or cells: CV-1
Description: FIG. 2A-2C illustrate the isolation and characterization of the partial clone of the protein that binds to TIF2.4. […] Five clones were obtained but only two (clones I and V) contained a protein that was needed for colony growth in the presence of the pSos/TIF2.4 fusion protein. After initial screening, only clone I (also named 6-6CL1) was selected for further investigation. FIG. 2B and FIG. 2C illustrate the selectivity of 6-6CL1 interactions with TIF2.4 in mammalian two-hybrid assays. Triplicate samples of CV-1 cells in 24-well plates were transiently transfected with the indicated GAL-DBD and VP16-AD plasmids along with the GAL4-regulated reporter, pFRLuc. The relative luciferase activity, normalized for the activity of the internal Renilla control, was determined and plotted as the average±S.D. The much lower activity of GAL/TIF2.4m123 was previously shown not to be due to unequal levels of protein expression (He et al., 2002). Similar results were obtained in three additional experiments. FIG. 2D and FIG. 2E provide a comparison of binding to 6-6CL1 by similarly positioned domains of SRC-1 and TIF2. Triplicate samples of CV-1 cells in 24-well plates were analyzed as in (B&C) after being transiently transfected with GAL±6-6CL1 constructs and pFRLuc reporter along with VP16 chimeras of SRC-1 (FIG. 2D) or TIF2 (FIG. 2E) segments. Similar results for SRC-1 were obtained in two additional experiments (ND=not determined). Western blots (FIG. 2F) indicate that the low activity of TIF2(1140C) (see FIG. 1) is not due to inadequate protein expression.
FIGS. 6A and 6B illustrate the domains of STAMP that interact with TIF2.4 (FIG. 6A) and GR (FIG. 6B) in the mammalian two-hybrid assay. […] These CV-1 cells were also transfected with GAL fused to the indicated segments of STAMP along with the FRLuc reporter and Renilla control plasmids. After determining the relative luciferase activities as described in FIG. 2B and 2C, the average values±S.E.M. from 2-5 experiments were plotted. The average fold increase for VP16/TIF2.4 with GAL/STAMP(623-834) in FIG. 6A was 11.0±3.0 (SEM, n=5) above the VP16 control. The values in parentheses above the data bars in FIG. 6B indicate the fold increased interaction ±1 μM Dex.
These assays were conducted as described (He et al., 2002). In particular, the recommended procedure for the Mammalian Matchmaker two-hybrid assay kit (Clontech) was modified slightly by changing from a chloramphenicol acetyltransferase reporter to a Luciferase Reporter pFRLuc (Stratagene), which is under the control of five repeats of the upstream activating sequence for the binding of GAL4.

interaction with TIF2.4 (TIF2.4 [2]): weak response
B1: STAMP834C: STAMP fragment amino acids 834-1277, receptor interaction domain (RID) (protein)
chain: GDHPETIMEEVKIKPPKQQQTTEIHSDKLSRFTTSAEKEAKLVYSNSSSGPTATLQKIPNTHLSSVTTSDLSPGPCHHSSLSQIPSAIPSMPHQPTILLNTVSASASPCLHPGAQNIPSPTGLPRCRSGSHTIGPFSSFQSAAHIYSQKLSRPSSAKAGSCYLNKHHSGIAKTQKEGEDASLYSKRYNQSMVTAELQRLAEKQAARQYSPSSHINLLTQQVTNLNLATGIINRSSASAPPTLRPIISPSGPTWSTQSDPQAPENHSSSPGSRSLQTGGFAWEGEVENNVYSQATGVVPQHKYHPTAGSYQLQFALQQLEQQKLQSRQLLDQSRARHQAIFGSQTLPNSNLWTMNNGAGCRISSATASGQKPTTLPQKVVPPPSSCASLVPKPPPNHEQVLRRATSQKASKGSSAEGQLNGLQSSLNPAASVPITSSTDPAHTKI
binding to GST/TIF2.4 (TIF2.4 [1]): neither the amino terminal (N623) nor the C-terminal (834C) fragments exhibit significantly more binding to GST/TIF2.4 than to GST itself

binding to GST/TIF2.4 (TIF2.4 [1]): strong binding
interaction with TIF2.4 (TIF2.4 [2]): did interact
average fold increase for VP16/TIF2.4 above the VP16 control (TIF2.4 [2]; SEM, n=5): 11.0±3.0 fold
B2: 6-6CL1: STAMP fragment amino acids 623-834, coactivator interaction domain (CID) (protein)
chain: ENTPKENSMKVREWNNKGGHCCKLETQELEPKFNLMQILQDNGNLSKMQARIAFSAYLQHVQIRLMKDSGGQTFSASWAAKEDEQMELVVRFLKRASNNLQHSLRMVLPSRRLALLERRRILAHQLGDFIIVYNKETEQMAEKKSKKKVEEEEEDGVNMENFQEFIRQASEAELEEVLTFYTQKNKSASVFLGTHSKISKNNNNYSDSGAKG

B3: STAMP: SRC-1 and TIF2 Associated Modulatory Protein, 1277 amino acid human polypeptide, expressed from transfected plasmid (protein)
chain: MARDLEETASSSEDEEVISQEDHPCIMWTGGCRRIPVLVFHADAILTKDNNIRVIGERYHLSYKIVRTDSRLVRSILTAHGFHEVHPSSTDYNLMWTGSHLKPFLLRTLSEAQKVNHFPRSYELTRKDRLYKNIIRMQHTHGFKVFHILPQTFLLPAEYAEFCNSYSKDRGPWIVKPVASSRGRGVYLINNPNQISLEENILVSRYINNPLLIDDFKFDVRLYVLVTSYDPLVIYLYEEGLARFATVRYDQGAKNIRNQFMHLTNYSVNKKSGDYVSCDDPEVEDYGNKWSMSAMLRYLKQEGRDTTALMAHVEDLIIKTIISAELAIATACKTFVPHRSSCFELYGFDVLIDSTLKPWLLEVNLSPSLACDAPLDLKIKASMISDMFTVVGFVCQDPAQRASTRPIYPTFESSRRNPFQKPQRCRPLSASDAEMKNLVGSAREKGPGKLGGSVLGLSMEEIKVLRRVKEENDRRGGFIRIFPTSETWEIYGSYLEHKTSMNYMLATRLFQDRMTADGAPELKIESLNSKAKLHAALYERKLLSLEVRKRRRRSSRLRAMRPKYPVITQPAEMNVKTETESEEEEEVALDNEDEEQEASQEESAGFLRENQAKYTPSLTALVENTPKENSMKVREWNNKGGHCCKLETQELEPKFNLMQILQDNGNLSKMQARIAFSAYLQHVQIRLMKDSGGQTFSASWAAKEDEQMELVVRFLKRASNNLQHSLRMVLPSRRLALLERRRILAHQLGDFIIVYNKETEQMAEKKSKKKVEEEEEDGVNMENFQEFIRQASEAELEEVLTFYTQKNKSASVFLGTHSKISKNNNNYSDSGAKGDHPETIMEEVKIKPPKQQQTTEIHSDKLSRFTTSAEKEAKLVYSNSSSGPTATLQKIPNTHLSSVTTSDLSPGPCHHSSLSQIPSAIPSMPHQPTILLNTVSASASPCLHPGAQNIPSPTGLPRCRSGSHTIGPFSSFQSAAHIYSQKLSRPSSAKAGSCYLNKHHSGIAKTQKEGEDASLYSKRYNQSMVTAELQRLAEKQAARQYSPSSHINLLTQQVTNLNLATGIINRSSASAPPTLRPIISPSGPTWSTQSDPQAPENHSSSPGSRSLQTGGFAWEGEVENNVYSQATGVVPQHKYHPTAGSYQLQFALQQLEQQKLQSRQLLDQSRARHQAIFGSQTLPNSNLWTMNNGAGCRISSATASGQKPTTLPQKVVPPPSSCASLVPKPPPNHEQVLRRATSQKASKGSSAEGQLNGLQSSLNPAASVPITSSTDPAHTKI
binding to GST/TIF2.4 (TIF2.4 [1]): weak interaction
